{"source": "patent US20240343762A1", "about": "“USE OF PROTON PUMP MODULATOR IN PREPARING REAGENT” (SHANGHAI QUIETD BIOTECHNOLOGY CO. LTD., priority 2021, published 2024)", "key": {"[1]": {"tested_on": "APP/PS1 transgenic AD mice", "assay": "Morris water maze test in APP/PS1 transgenic AD mice", "format": "in vivo, mouse", "settings": "continuously for 1 week, mice of 10 months old", "method": "Morris water maze referred to the test solutions recorded in Qing-Feng Wu et al., Fibroblast growth factor 13 is a microtubule-stabilizing protein modulating neuronal polarization and migration. Cell. 149, 1549-1564 (2012). The test was carried out in a circular pool filled with water (120 cm in diameter, 30 cm in depth, titanium dioxide was added to make opaque, kept temperature at 21±1° C.) in a room with a fixed environment. The test was divided into an adaptation period (1 day), a training period (5-6 days) and a testing period (1 day). Adaptation period: the platform was placed 0.5 cm above the water surface, and the mice were guided to the platform. Training day: the platform was placed 0.5 cm underwater, and the mice were trained to find the platform. […] Training were performed 4 times a day, 4 times a day (between 8:00 a.m. to 4:00 p.m.), the mice were dropped from different water points each time, each training was performed at interval of at least 30 min, a total of 6 days, and the order of water points was different every day. Test Day: test was performed 24 h after the end of the training day. […] The footage was analyzed with Etho Vision XT 14 software, recording parameters including the escape latency of entering the target quadrant, the number of platform crossings, and the dwell time in the target quadrant. […]"}, "[2]": {"molecular_target": "T1, murine ATP6V1B2 full-length protein (Mus musculus, UniProt P62814)", "T1 construct": "expressed in transfected cells; host or cells: 293 cells", "T1 sequence (P62814 whole entry, the tested form may be a part)": "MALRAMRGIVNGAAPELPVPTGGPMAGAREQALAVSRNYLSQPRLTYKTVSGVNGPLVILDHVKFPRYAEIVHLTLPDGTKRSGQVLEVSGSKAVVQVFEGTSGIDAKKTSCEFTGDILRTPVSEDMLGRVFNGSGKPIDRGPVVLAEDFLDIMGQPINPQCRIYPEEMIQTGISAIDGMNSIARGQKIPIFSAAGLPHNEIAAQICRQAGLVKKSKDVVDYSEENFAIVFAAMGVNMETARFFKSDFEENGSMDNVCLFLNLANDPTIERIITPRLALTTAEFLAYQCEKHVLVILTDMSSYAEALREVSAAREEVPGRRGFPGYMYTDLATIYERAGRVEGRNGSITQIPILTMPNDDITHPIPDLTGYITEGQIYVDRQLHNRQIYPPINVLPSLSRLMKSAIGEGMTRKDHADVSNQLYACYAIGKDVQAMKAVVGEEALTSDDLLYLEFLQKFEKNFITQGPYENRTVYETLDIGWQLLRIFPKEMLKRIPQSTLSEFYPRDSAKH", "assay": "Co-immunoprecipitation of EGFP-tagged QD202 with Myc-tagged ATP6V1B2 full-length protein in 293 cells", "format": "binding", "source_text": "(§1) Expression plasmids including murine ATP6V1B2 full-length sequence, 1-286aa truncated sequence or 1-172aa truncated sequence with a Myc tag are respectively constructed; the amino acid sequence of the murine ATP6V1B2 full-length sequence was as set forth in SEQ ID NO. 8, the amino acid sequence of the murine ATP6V1B21-286aa was as set forth in SEQ ID NO. 10; the amino acid sequence of the murine ATP6V1B21-172aa as set forth in as SEQ ID NO. 11; and these plasmids were respectively called as an ATP6V1B2 full-length expression plasmid, an ATP6V1B21-286aa expression plasmid and an ATP6V1B21-172aa expression plasmid. Meanwhile, a QD202 expression plasmid with an EGFP tag was constructed. […]\n(§2) Then a Protein G agarose bead was added to be bound to the Myc antibody, so as to precipitate the ATP6V1B2 full-length protein, the 1-286aa truncated sequence or the 1-172aa truncated sequence, and proteins which were bound to one another, and finally the proteins subjected to co-immunoprecipitation was detected by virtue of an immunoblotting method."}, "[3]": {"molecular_target": "T2, murine ATP6V1B2 1-286aa truncated sequence (Mus musculus, UniProt P62814)", "T2 construct": "expressed in transfected cells; host or cells: 293 cells", "T2 sequence (P62814 1-286)": "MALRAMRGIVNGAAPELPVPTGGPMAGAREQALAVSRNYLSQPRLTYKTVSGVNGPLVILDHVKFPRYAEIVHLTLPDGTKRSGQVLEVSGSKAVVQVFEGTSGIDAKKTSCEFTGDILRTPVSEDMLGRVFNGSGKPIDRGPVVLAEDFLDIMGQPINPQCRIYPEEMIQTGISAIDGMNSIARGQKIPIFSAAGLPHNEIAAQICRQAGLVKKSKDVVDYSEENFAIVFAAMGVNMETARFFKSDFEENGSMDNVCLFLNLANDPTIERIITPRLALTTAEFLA", "assay": "Co-immunoprecipitation of EGFP-tagged QD202 with Myc-tagged ATP6V1B2 1-286aa truncated sequence in 293 cells", "format": "binding", "settings": "Myc antibody, immunoblotting", "source_text": "as §1, §2"}, "[4]": {"molecular_target": "T3, murine ATP6V1B2 1-172aa truncated sequence (Mus musculus, UniProt P62814)", "T3 construct": "expressed in transfected cells; host or cells: 293 cells", "T3 sequence (P62814 1-172)": "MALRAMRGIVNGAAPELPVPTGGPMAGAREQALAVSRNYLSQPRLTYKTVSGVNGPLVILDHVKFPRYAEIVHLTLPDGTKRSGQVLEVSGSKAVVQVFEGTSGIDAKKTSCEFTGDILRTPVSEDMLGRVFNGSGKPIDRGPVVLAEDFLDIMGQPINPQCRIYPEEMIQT", "assay": "Co-immunoprecipitation of EGFP-tagged QD202 with Myc-tagged ATP6V1B2 1-172aa truncated sequence in 293 cells", "format": "binding", "settings": "Myc antibody, immunoblotting", "source_text": "as §1, §2"}, "ATP6V1B2": {"molecular_target": "ATP6V1B2 (Mus musculus, UniProt P62814)", "sequence (P62814 whole entry)": "as the sequence (P62814 whole entry, the tested form may be a part) above", "assay": "Co-immunoprecipitation in HEK 293 cells transfected with murine Atp6V1b2 expression plasmid with myc tag", "format": "binding", "parameters": "expressed in transfected cells; host or cells: HEK 293", "settings": "HEK 293 cell lysate, biotin antibody, immunoblotting", "method": "(6) A murine Atp6V1b2 expression plasmid with a myc tag at the 3′ end was constructed; the plasmid was transfected in HEK 293 cells; the cells were collected after 2 days; and cell protein was extracted. The biotin antibody and protein G agarose beads were added into a cell lysis solution for co-immunoprecipitation^[1], and the protein was eluted by the protein loading buffer solution.\n(7) SDS-PAGE protein electrophoresis gel was prepared, the concentration of lower-layer separation gel was 10%, and the concentration of upper-layer concentrated gel was 4%; the sample was added into a loading hole; and the protein was detected by an immunoblotting method, with the result shown in FIG. 6b."}}, "data": [{"substance": "QD202: polypeptide synthesized according to the amino acid sequence as set forth in SEQ ID NO. 1 (YGRKKRRQRRRSPVDVVCS; QD202)", "values": [{"measurement": "learning and cognitive functions in water maze behavior", "setting": "[1]; intragastric, 6.25 mg/kg", "value": "obvious improvement of learning and cognitive functions"}, {"measurement": "learning and cognitive functions in water maze behavior", "setting": "[1]; intravenous, 1.25 mg/kg", "value": "obvious improvement on learning and cognitive functions"}, {"measurement": "binding to ATP6V1B2 full-length protein by co-immunoprecipitation", "setting": "[2]; 293 cells, Myc antibody, immunoblotting", "value": "only the full-length ATP6V1B2 protein can be combined"}, {"measurement": "binding site of ATP6V1B2 and QD202", "setting": "[2]; concluded from full-length versus truncated sequences", "value": "288th amino acid to 512th amino acid"}, {"measurement": "binding to ATP6V1B2 1-286aa truncated sequence by co-immunoprecipitation", "setting": "[3]", "value": "only the full-length ATP6V1B2 protein can be combined"}, {"measurement": "binding to ATP6V1B2 1-172aa truncated sequence by co-immunoprecipitation", "setting": "[4]", "value": "only the full-length ATP6V1B2 protein can be combined"}, {"measurement": "binding to ATP6V1B2 protein by co-immunoprecipitation", "setting": "ATP6V1B2", "value": "specific binding between the QD202 and the ATP6V1B2 protein can be found"}]}]}
